Measured values: patent publication US20250034594A1, “RNA-GUIDED GENOME RECOMBINEERING AT KILOBASE SCALE” (THE BOARD OF TRUSTEES OF THE LELAND STANFORD JUNIOR …, priority 2021, published 2025)

Columns and labels:
[1] = test system: endogenous genomic loci (DYNLT1, HSP90AA1, AAVS1, ACTB) in HEK293T cells; assay: Kilobase mKate knock-in assay in HEK293T cells (flow cytometry); type: cell-based, human; conditions: for HDR / knock-in efficiency enhancement: five genomic sites (EMX1, VEGFA, HSP90AA1, DYNLT1, AAVS1), wtCas9; for activity in no-recruitment control: PCP no-recruitment control; for knock-in editing activity with dCas9, comparison of SSAPs: dCas9, MS2-MCP
Protocol: Transfection HEK293T cells were seeded into 96-well plates (Corning) 12-24 hours prior to transfection at a density of 30,000 cells/well, and 250 ng of total DNA was transfected per well. HeLa and HepG2 cells were seeded into 48-well plates (Corning) one day prior to transfection at a density of 50,000 and 30,000 cells/well respectively, and 400 ng of total DNA was transfected per well. Transfections were performed with Lipofectamine 3000 (Life Technologies) following the manufacturer's instructions.
Fluorescence-activated cell sorting (FACS) mKate knock-in efficiency was analyzed on a CytoFLEX flow cytometer (Beckman Coulter; Stanford Stem Cell FACS Core). 72 hours after transfection, cells were washed once with PBS and dissociated with TrypLE Express Enzyme (Thermo Fisher Scientific). Cell suspension was then transferred to a 96-well U-bottom plate (Thermo Fisher Scientific) and centrifuged at 300×G for 5 minutes. After removing the supernatant, pelleted cells were resuspended with 50 μl 4% FBS in PBS, and cells were sorted within 30 minutes of preparation.
HEK293T, Hela, HepG2 and U2OS cells were seeded into 96-well plates (Corning) 12-24 hours prior to transfection at a density of 30,000 cells/well, and 250 ng of total DNA was transfected per well. Cells were transfected with Lipofectamine 3000 (Life Technologies) following the manufacturer's instructions when the cell are ˜70% confluence. In brief, we used 250 ng total DNA, 0.4 ul Lip3000 reagent, mixed with 10 ul of Opti-MEM per well. For the 250 ng DNA, we used 160 ng of dCas9-SSAP guide RNA plasmids (for double sgRNAd design, use equal amount of the two guide RNA plasmids, e.g., 80 ng each), 60 ng of pMCP-RecT or GFP control plasmid (addgene #64539) and 30 ng of PCR template DNA (the PCR primer could be found in Table 7, the template sequence could be found in Supplementary Sequences). Three days later, the cells were analyzed using FACS.
mKate knock-in efficiency was analyzed on a CytoFLEX flow cytometer (Beckman Coulter; Stanford Stem Cell FACS Core). 72 hours after transfection or 96 hours after electroporation, cells were washed twice with PBS and dissociated with TrypLE Express Enzyme (Thermo Fisher Scientific). Cell suspension was then transferred to a 96-well U-bottom plate (Thermo Fisher Scientific) and centrifuged at 300 g for 5 minutes. After removing the supernatant, pelleted cells were resuspended with 50 μl 4% FBS in PBS, and cells were analyzed within 30 minutes after preparation.

[2] = test system: endogenous genome targets (ACTB, HSP90AA1); assay: Arrayed SSAP library screening, mKate knock-in assay (editing efficiency); type: cell-based; conditions: average of HSP90 and ACTB, 3 days after transfection
Summary of the method: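 Mammalian cells in duplicate were transfected with SSAP-encoding plasmids, with about 50% transfection efficiency. mKate knock-in positive cells and viability, by flow-cytometric live counts, were quantified three days later. RecT SSAP served as positive control and Flag-HA plasmid as negative control.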

mammalian cells = assay: Arrayed SSAP library screening, cell viability by live cell counts via flow cytometry; type: cell-based
Summary of the method: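 Each SSAP plasmid transfected in duplicate (~50% efficiency), with RecT SSAP as positive and Flag-HA as negative control. After three days, mKate-positive cells and viability by flow-cytometric live cell counts were quantified to gauge SSAP fitness effects.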

DYNLT1 locus = assay: mKate knock-in gene-editing assay, RecE/RecT homologs, DYNLT1 locus; type: cell-based, human; conditions: HEK293 cells, MCP fusion, n=3
Summary of the method: (§1)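 RecE/RecT homologs from 15 microbial species, codon-optimized and each fused via E-XTEN linker to MCP with NLS, tested for mKate knock-in. Cells transfected by Lipofectamine 3000 (HEK293T 250 ng DNA/well; HeLa, HepG2 400 ng); knock-in efficiency measured by flow cytometry 72 h post-transfection.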

HSP90AA1 locus = assay: mKate knock-in gene-editing assay, RecE/RecT homologs, HSP90AA1 locus; type: cell-based, human; conditions: HEK293 cells, MCP fusion, n=3
Summary of the method: as §1

Molecule | HDR / knock-in efficiency enhancement [1] | activity in no-recruitment control [1] | genomic knock-in efficiency of kilobase cassette, dCas9 editing ([1]; SSAP candidate screen, HSP90AA1, DYNLT1, ACTB, human cells) [%] | knock-in editing activity with dCas9, comparison of SSAPs ([1]; human cells) | knock-in editing activity with dCas9, comparison of SSAPs ([1]; human cells, listed as RecT) | HDR efficiency for kb-scale knock-in ([1]; template bearing 600-800 bp total HA, without selection) | Editing Efficiency (Normalized, Average, two targets) ([2]; fold over negative control (Flag_HA)) | Editing Efficiency (Absolute, Average, two targets) ([2]; percent of mKate knock-in) | Cell Viability (Average, two targets) (mammalian cells) | Mean mKate+ (%), DYNLT1 (DYNLT1 locus) [%] | Mean mKate+ (%), HSP90AA1 (HSP90AA1 locus) [%]
RecE_CTD: carboxy terminus domain of E. coli RecE; SEQ ID NO: 3 (protein) GISNENYHAGPGVSKSQLDDIADTPALYLWRKNAPVDTTKTKTLDLGTAFHCRVLEPEEFSNRFIVAPEFNRRTNSGKEEEKAFLRECASTGKTVITAEEGRKIELMYQSVMALPLGQWLVESAGHAESSIYWEDPETAILCRCRPDKIIPEFHWIMDVKTTADIQRFKTAYYDYRYHVQDAFYSDGYEAQFGVQPTFVFLVASTTIECGRYPVEIFMMGEEAKLAGQLEYHRNLRTLADCLNTDEWPAIKTLSLPRWAKEYAND | variable increases in knock-in efficiency |  |  |  |  |  |  |  |  |  | 
RecE: Escherichia coli RecE exonuclease; SEQ ID NO: 1 (protein, listed as Escherichia coli) MSTKPLFLLRKAKKSSGEPDVVLWASNDFESTCATLDYLIVKSGKKLSSYFKAVATNFPVVNDLPAEGEIDFTWSERYQLSKDSMTWELKPGAAPDNAHYQGNTNVNGEDMTEIEENMLLPISGQELPIRWLAQHGSEKPVTHVSRDGLQALHIARAEELPAVTALAVSHKTSLLDPLEIRELHKLVRDTDKVFPNPGNSNLGLITAFFEAYLNADYTDRGLLTKEWMKGNRVSHITRTASGANAGGGNLTDRGEGFVHDLTSLARDVATGVLARSMDLDIYNLHPAHAKRIEEIIAENKPPFSVFRDKFITMPGGLDYSRAIVVASVKEAPIGIEVIPAHVTEYLNKVLTETDHANPDPEIVDIACGRSSAPMPQRVTEEGKQDDEEKPQPSGTTAVEQGEAETMEPDATEHHQDTQPLDAQSQVNSVDAKYQELRAELHEARKNIPSKNPVDDDKLLAASRGEFVDGISDPNDPKWVKGIQTRDCVYQNQPETEKTSPDMNQPEPVVQQEPEIACNACGQTGGDNCPDCGAVMGDATYQETFDEESQVEAKENDPEEMEGAEHPHNENAGSDPHRDCSDETGEVADPVIVEDIEPGIYYGISNENYHAGPGISKSQLDDIADTPALYLWRKNAPVDTTKTKTLDLGTAFHCRVLEPEEFSNRFIVAPEFNRRTNAGKEEEKAFLMECASTGKTVITAEEGRKIELMYQSVMALPLGQWLVESAGHAESSIYWEDPETGILCRCRPDKIIPEFHWIMDVKTTADIQRFKTAYYDYRYHVQDAFYSDGYEAQFGVQPTFVFLVASTTIECGRYPVEIFMMGEEAKLAGQQEYHRNLRTLADCLNTDEWPAIKTLSLPRWAKEYAND |  | had activities without recruitment |  |  |  |  |  |  |  |  | 
EcRecT: Escherichia coli RecT SSAP; SEQ ID NO: 171 (Tables 8, 9), SEQ ID NO: 9; positive control in Table 9 (protein) MTKQPPIAKADLQKTQGNRAPAAIKNNDVISFINQPSMKEQLAAALPRHMTAERMIRIATTEIRKVPALGNCDTMSFVSAIVQCSQLGLEPGSALGHAYLLPFGNKNEKSGKKNVQLIIGYRGMIDLARRSGQIASLSARVVREGDEFNFEFGLDEKLIHRPGENEDAPVTHVYAVARLKDGGTQFEVMTRKQIELVRSQSKAGNNGPWVTHWEEMAKKTAIRRLFKYLPVSIEIQRAVSMDEKEPLTIDPADSSVLTGEYSVIDNSEE | significantly enhanced HDR in all cases | efficiency increases in a recruitment-dependent manner | ≤ 6 | highest efficiency for dCas9 editing | higher knock-in editing activities relative to other SSAPs | over 10% | 3.807 | 9.4225 | 0.8651 | 9.9467 | 6.5467
EcRecE_587: Escherichia coli RecE truncated from AA587; SEQ ID NO: 2 (protein) ADPVIVEDIEPGIYYGISNENYHAGPGVSKSQLDDIADTPALYLWRKNAPVDTTKTKTLDLGTAFHCRVLEPEEFSNRFIVAPEFNRRTNSGKEEEKAFLRECASTGKTVITAEEGRKIELMYQSVMALPLGQWLVESAGHAESSIYWEDPETAILCRCRPDKIIPEFHWIMDVKTTADIQRFKTAYYDYRYHVQDAFYSDGYEAQFGVQPTFVFLVASTTIECGRYPVEIFMMGEEAKLAGQLEYHRNLRTLADCLNTDEWPAIKTLSLPRWAKEYAND | variable increases in knock-in efficiency |  |  |  |  |  |  |  |  | 5.1767 | 3.7067
